{"source": "patent JP2012050437A", "biological_target": "soluble Aβ1-42 (125I-labelled) (human) (UniProt P05067)", "test": "capture radioimmunoassay, 50,000 CPM 125I-Aβ1-42, antibody at 10 µg/ml", "data": [{"substance": "murine monoclonal antibody 10D5 (isotype IgG1)", "values": [{"measurement": "percent of radioactive counts bound at 10 µg/ml", "result": 2, "unit": "%"}]}]}
